The nanobody polyreactivity screen of Harvey et al. (2022)

assay: yeast display, Sf9 membrane polyspecificity reagent, FACS + sequencing; frameworks hold sequencing errors
Method in brief: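 Galactose-induced (36–48 hours) yeast carrying a synthetic nanobody display library were exposed to 10% biotinylated, detergent-solubilized Sf9 membrane reagent at 4 °C for 1 hour. FACS followed streptavidin microbead enrichment, using low and high (top ~1%) gates for expression (anti-HA) and reagent binding (streptavidin). Colony PCR, MiSeq 2 × 250 sequencing and CDR-length filtering followed. Labels for polyreactivity reflect the gate of origin.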

Sequence | polyreactivity (PSR sort gate)
QVQLVESGGGLVQAGGSLRLSCAASGNIRNYGMGCSRQAPGKERELVDAISSGGVRTYYADSVKGRFTLSRDNAKNTVYLQMNSLKPEETAVYYCAVASWYYLYPPGYRAITHDYWGQGTQVTVSS | high polyreactivity
QVQLVESGGGLVQAGGSLRLSCAASGNIYNYAMGWYIQAPGKERELVAAIRSSDGSTYYADSVKGRFTISRDNAKNTVYLQMNSLKPEDTAVYDCARRTRRTSTYYYYGSRYYYWGQGTQVTVSS | high polyreactivity
QVQLVESGGGLVQAGGSLRLSCAASGNTFAQYGMGWYRQAPGKEREFVAAITRRGGSTYYADSVKGRFTISRDNAKNTVYLQMNSLKPEDTAVFYCAAGHYRRRYPSYGLQEYDYWGQGTQVTVSS | high polyreactivity
QVQLVESGGGLVQAGGSLRLSCAASGNTFAVNAMGWYRQAPGKERELVAAISRSGVTTRYADSVKGRFTISRDNAKNTVYLLMNSLKPEDTAVYYCNADPRLRQTRDYWGQGTQVTVSS | high polyreactivity
QVQLVESGGGLVQAGGSLRLSCAASGNTFDGYDMGWYRQAPGNKRELVAAITNTGASTYYADSVKGRCTISRDNAKNTVYLQMNSLKPEDTAVYYCNAQDSYPEDRHGMSYWGQGTQVTVSS | low polyreactivity
QVQLVESGGGLVQAGGSLRLSCAASGNTFDPNAMGWYRQAPGKEREFVAAISTIGSSTYYADSVKGRFTISRDNAKNTVYLQMNSLKPEDTAVYYSNADYFQDRLDYWGQGTQVTVSS | low polyreactivity
QVQLVESGGGLVQAGGSLRLSCAASGNTFDRYAMGWYRQAPGKERELVAAITRSGGNTYYADSVKGRFTISRDNAKNTVYLQMNSLKPEDTAVYYCAAYFFPYYTGYGYWGQGTQVTVSS | high polyreactivity
QVQLVESGGGLVQAGGSLRLSCAASGNTFGIYAMGWYRQAPGKERELVAAISSGTSTNYADSVKGRFTISRDNAKNTVYLQMNSLKPEDTAVYYCNADDQYQDVREDFWGQGTQVTVSS | low polyreactivity
QVQLVESGGGLVQAGGSLRLSCAASGNTFGKYAMGWYRHAPGKERELVAAISKSSGSTYYADSVKGRFTLSRDNAKNTVYLQMNSLKPEDTAVYYCAACWYSYRYSRLGFGSWGQGTQVTVSS | high polyreactivity
QVQLVESGGGLVQAGGSLRLSCAASGNTFGNYGMGWYRQAPGKEREFVAAITSRGTSTYYADSVKGRFTISRDNAKNTVYLQMNSLKPEDTAVYYCNARPRYKYPRYDYWGQGTQVTVSS | high polyreactivity
QVQLVESGGGLVQAGGSLRLSCAASGNTFGTYVMGWYRQAPGKERELVAAISQSGGSTDYADSVKGRFTISRYNAKNTVYLQMNSLKPEDTAVYYCATDGHYLYNRKYYRLTRYYYWGQGTQVTVSS | low polyreactivity
QVQLVESGGGLVQAGGSLRLSCAASGNTFHSNAMGWYRQAPGKERELVAAITPSDGDTYYADSVKGRFTISRDIAKNTVYLQMNSLKPEDTAVYYCAADPEPSYRFDYWGQGTQVTVSS | low polyreactivity
QVQLVESGGGLVQAGGSLRLSCAASGNTFKDYTMGWFRQAPGTERELVASINSGGSTNYADSVKGRFTISRDNAKNTVYLQMNSLKPEDTAVYDCAKRAWSDYNPIDYWGQGTQVTVSS | low polyreactivity
QVQLVESGGGLVQAGGSLRLSCAASGNTFKYYAMGWYRQAPGKERVLVATISRTAGSTYYADSVKGRFTISRDNAKNTVYLQMNSLKPEDTAVYYCNKDRGHPFKYDYWGQGTQVTVSS | low polyreactivity
QVQLVESGGGLVQAGGSLRLSCAASGNTFLPYAMGWYRQPPGKERELVAAISWSGGSTYYADSVKGRFTISRDTAKNTVYLQMNSLKPEDTAVYYCAATPTRRYYRQSAYDYWGQGTQVTVSS | high polyreactivity
QVQLVESGGGLVQAGGSLRLSCAASGNTFLVNVMGWYRQAPGKERELVASITINDGSTYYADSVKGRFTISRDNAKNTVYLQMNSLKPDDTAVYYCAADGVVPGRFFWPAHEYDYWGQGTQVTVSS | low polyreactivity
QVQLVESGGGLVQAGGSLRLSCAASGNTFLYYAMGWYRQAPGKEMELVASINLSDGCTYYADSVKGRFTISRDNAKNTVYFQMTSLKPEDTAVYYCAAVFGGYTIYDYWGQGTQVTVSS | low polyreactivity
QVQLVESGGGLVQAGGSLRLSCAASGNTFNSYAMGWYRQAPGKERELVAAIRWRGTSTYYADSVKGRFTISRDTAKNTVYLQMNSLKPEDTAVYYCAADVVRSNFYGTFLYDYDYWGQGTQVTVSS | low polyreactivity
QVQLVESGGGLVQAGGSLRLSCAASGNTFPFNAMGWYRQAPGKERELVAAISRGGSTYYADSVKGRFTISRDNAKNTVYLQMISLKPEDTAVYYCAVSAGKRRLDYWGQGTQVTVSS | high polyreactivity
QVQLVESGGGLVQAGGSLRLSCAASGNTFPRYAMGWYRQAPGKERELVASISWSGGSTYYADSVKGRFTISRDNAKNTVYLQMNSLKPEDTAVYYCNARRAYRAWYYPYDYWGQGTQVTVSS | high polyreactivity
QVQLVESGGGLVQAGGSLRLSCAASGNTFPSYVMGWYRQAPGKERELVAAINRGGGTYYADSVKGRFTISRDNAKNTVYLQMNSLKPEVTAVYYCAVRDQRHPYMDYWGQGTQVTVSA | low polyreactivity
QVQLVESGGGLVQAGGSLRLSCAASGNTFPTYAMGWYRQAPGKERELVAAISRRGGSTYYADSVKGRFTISRDNAKNTVYLQMNSLKPEDTAVYYCARPRRSVNVYKYIYNYWGQGTQVTVSS | high polyreactivity

Sequence | polyreactivity (PSR sort gate)
QVQLVESGGGLVQAGGSLRLSCAASGNTFPVYAMGWYRQASGKERELVATITSGGSTNYADSVKGRFTISRDNAKNTVYLQMNSLKPEDTAVYYCARRAVYSKRRYDYWGQVTQVTVSS | low polyreactivity
QVQLVESGGGLVQAGGSLRLSCAASGNTFQRYTMGWYRQAPGKERELVAAITWSGGNTYYADSVKGRFTISRDNAKNTVYLQMNSLKPEDTAVYYCATYYWLGLSLYDYWGQGTQVTVSS | low polyreactivity
QVQLVESGGGLVQAGGSLRLSCAASGNTFRDYAMGWYRQAPGKERELVAAITSAGARTYYADSVKGRFTISRDNAKNTVYLQMNSLKPEDTAVYYCAADWSGYYTYDYWGQGTQVTVSS | low polyreactivity
QVQLVESGGGLVQAGGSLRLSCAASGNTFRFYAMGWYRQAPGKERELVADITRGGSTNYADSVKGRFTISRDNAKNTVYLQMNSLKPEDTAVYYCAARPWYYTSSFYYGRYDYWGQGTQVTVSS | high polyreactivity
QVQLVESGGGLVQAGGSLRLSCAASGNTFRWYVMGWYRQAPGKERELVAAITSSGSTTYYADSVKGRFTISRDNAKNTVYLQLNSLKPEDTAVYYCAARNYGPYDYWGQGTQVTVSS | low polyreactivity
QVQLVESGGGLVQAGGSLRLSCAASGNTFRWYVMGWYRQAPGKERELVAAITSSGSTTYYADSVKGRFTISRDNAKNTVYLQMNSLKPEDTAVYYCAADGRTITYSPVDYDSWGQGTQVTVSS | low polyreactivity
QVQLVESGGGLVQAGGSLRLSCAASGNTFRYYAMGWYRQAPGKERELVAAINRSGGRTYYADSVKGRFTISRDNAKNTVYLQMNSLKPEDTAVYYCARSIRYGRGVYKGGYWGQGTQVTVSS | high polyreactivity
QVQLVESGGGLVQAGGSLRLSCAASGNTFRYYAMGWYRQAPGKERELVAAISESGGRTYYADSVKGRFTISRDNAKNTVYLQMNSLNPEDTAVYYCAASRWARTWWYGYNYWGQGTQVTVSS | high polyreactivity
QVQLVESGGGLVQAGGSLRLSCAASGNTFSGNAMGWYRQAPGKQRELVATINSGGGSTNYADSVTGRFSISRDNAKNTVYLQMNSLKPEDTAGYYCAASAYTWRGIDSSYLTVTYDYWGQGTQVTVSS | low polyreactivity
QVQLVESGGGLVQAGGSLRLSCAASGNTFSNYAMGWYRQAPGKERELVAAISRSGGRTYYADSVKGRFTISRDNAKNSVYLKMNSLKPEDTAVYDCIATSNGESYYWGQGTQVTVSS | high polyreactivity
QVQLVESGGGLVQAGGSLRLSCAASGNTFSPYVMGWYRQAPGKERELVAAISKGGGSTYYADSVKGRFTISRDNAKNTVYLQMNSLKPEDTAVYYCAASAGPRASYYYWGQGTQVTVSS | high polyreactivity
QVQLVESGGGLVQAGGSLRLSCAASGNTFTSYAMGWYRQAPGKERELVAAISASGSSTYYADSVKGRFTISRDNAKNTVYLQMNSLKPEDTAVYYCNAVKYRVESSYDYWGQGTQVTVSS | low polyreactivity
QVQLVESGGGLVQAGGSLRLSCAASGNTFTTYAMGWYRQAPGKERELVAAISRRGGSTYYADSVKGRFTISRDNAKNTVYLQMNSLKPDDTAVYYCARRYFYTYGYWGQGTQVTVSS | high polyreactivity
QVQLVESGGGLVQAGGSLRLSCAASGNTFTVNAMGWYRQAPGKERELVAAINYSGGSTYYADSVKGRFTISRDNAKNTVYLQMNSLKPEDTAVYYCAASPDELLYEMYYWGQGTQVTVSS | low polyreactivity
QVQLVESGGGLVQAGGSLRLSCAASGNTFVAYAMGWYRQAPGKERELVAGITRGGTTYYADSVKGRFTISRDNAKNTVYLQMNSLKPEDTAVYYCAARLGYRYNYWGQGTQVTVSS | high polyreactivity
QVQLVESGGGLVQAGGSLRLSCAASGNTFVDYAMVWYRQAPGKERELVAAIDQTGGSTYYADSVKGRFTISRDNAKNTVYLQMNSLKPEDTAVYYCARDLAYRKDLYPRWYDYWGQGTQVTVSS | low polyreactivity
QVQLVESGGGLVQAGGSLRLSCAASGNTFVPYVMGWYRQAHGKERELVAAISRRGGSTRYADSVKGRFTISRDNAKNTVYLQMNSLKPEDTAVYYCAADGYVFALQRSRGVDFGYEYWGQGTQGTVSS | high polyreactivity
QVQLVESGGGLVQAGGSLRLSCAASGNTFWYYAMGWYRQAPGKEREFVAAISRRGTTTYYADSVKWRFTISRDNAKNTVYLQMNSLKPEDTAVYYCAARRYVSVFRVSATGLDLGYWGQGTQVTVSS | high polyreactivity
QVQLVESGGGLVQAGGSLRLSCAASGNTFWYYAMGWYRQAPGKERELVAAISWDGGITYYADSVKGRFTISRDNAKNTVFLQMNRLKPEDTAVYYCATLIPRKGSRYYHRGYWGQGTQLTVSS | high polyreactivity
QVQLVESGGGLVQAGGSLRLSCAASGNTFYDNAMGWYRQTPGKERELVAAISYNDGDTYYADSVKGRFTISRDNAKNTVYLQMNSLKPEDTAVYFCAAVVRRVRGARGQEGDNYWGQGTQVTVSS | high polyreactivity
QVQLVESGGGLVQAGGSLRLSCAASGNTFYGYAMGWYRPAPGKERELVASITLSGDSTYYADSVKGRFTISRDNAKNTVYLQMNSLKPEDTAVYYCAGVYTYPLGYYHYTYDYWGQGTQVTVSS | low polyreactivity
